Measurements as given in article PMC3976318.

Legend:
[1] = molecular target: HA-MC4R (wild-type melanocortin 4 receptor, 3x HA tagged) (human) (UniProt P32245)
[2] = molecular target: HA-MC4R G34A (novel rare variant, 101G>C) (human) (UniProt P32245)

α-MSH EC50 for cAMP production (cAMP immunoassay dose-response, HEK cells stably expressing the receptor, three independent immunoassays) [1]: 41.1 nM | α-MSH EC50 for cAMP production (cAMP immunoassay dose-response, HEK cells stably expressing the receptor, three independent immunoassays) [2]: 43 nM
Substance: α-melanocyte stimulating hormone (peptide)
